Holding throughout (assay): purified protein
Common to all, as to details: 50 mM Tris/HCl pH 7.5, 25 °C, O2 co-substrate, Fe(II) enzyme

For series [1], the system named is [H][C@@]12CCc3c(ccc(O)c3O)[C@@]1([H])CC[C@]1(C)[C@@H](O)CC[C@@]21[H].
Another series has as its system Oc1cccc(-c2ccccc2)c1O.
Another series deals with T1, Cc1cccc(O)c1O.
T1 construct: full ORF in pET22b(+), E. coli BL21(DE3); Q Sepharose column purified, contaminated; no tag mentioned
It is filed as biochemical, Novosphingobium sp. PP1Y.

Substrate in series [2]: Oc1ccccc1O
It is filed as biochemical, Novosphingobium sp. PP1Y.

Substrate in series [3]: Cc1cccc(O)c1O
It is filed as biochemical, Novosphingobium sp. PP1Y.

Substrate in series [4]: Cc1ccc(O)c(O)c1
It is filed as biochemical, Novosphingobium sp. PP1Y.

Substrate in series [5]: Oc1cccc(-c2ccccc2)c1O
This is another data set of the same source.

Substrate in series [6]: [H][C@@]12CCc3c(ccc(O)c3O)[C@@]1([H])CC[C@]1(C)[C@@H](O)CC[C@@]21[H]
It counts as biochemical, Novosphingobium sp. PP1Y.

Broadly, the Km is the concentration of substrate that gives half-maximal velocity. As usually defined, the kcat is the maximal rate divided by the concentration of active sites. Broadly, the kcat/Km is the turnover number divided by the Michaelis constant. Turning to PP28735 (Novosphingobium sp. PP1Y), in series [1], the Km was 1.90 µM, the kcat came to 38.2 s⁻¹ and the kcat/Km was found to be 2.01e+07 M⁻¹ s⁻¹. Moreover, in the series on Oc1cccc(-c2ccccc2)c1O, the Km came out at 67.90 µM, the kcat stood at 18.6 s⁻¹ and the kcat/Km was 270000 M⁻¹ s⁻¹. Moreover, in the series on Cc1cccc(O)c1O, the Km turned out to be 451 µM, the kcat is 1.47 s⁻¹ and the kcat/Km came out at 3300 M⁻¹ s⁻¹.

B1: PP00193 (Novosphingobium sp. PP1Y) (protein)
chain: MALTGVLRPGYVQLRVLDLDEAIQHYRDRIGLNLVSVEDGRAFFQAFDEFDRHSIILREADSAGLDRMAFKVAKDADLDHFAERLLDMGVHVDIIPAGEDPGVGRKIRFNTPTAHVFDLYAEMELSETGPAVRNPDVWIAEPRGMRATRFDHCALNGVDISASAKIFVEALDFSVTEELVDEASGTRLGIFLSCSNKAHDVAFLGYPEDGRIHHTSFNLESWHDVGHAADIISRYDISLDIGPTRHGITRGQTIYFFDPSGNRNETFSGGYTYYPDNPRRMWQAENAGKAIFYYEKALNDRFMTVNT
notes: full ORF in pET22b(+), E. coli BL21(DE3); Q-Sepharose batch purified; no tag mentioned
For B1, the Km came to 1.69 µM in “purified protein [2]”, 3.17 µM in the series “purified protein [3]”, 1.89 µM in the series “purified protein [4]” and 3.15 µM in “purified protein [5]”. Besides, the kcat in the series “purified protein [2]” amounted to 194 s⁻¹; in the series “purified protein [3]”, 225 s⁻¹; in “purified protein [4]” it was 120 s⁻¹; in “purified protein [5]”, 30.5 s⁻¹. Also, the kcat/Km in the series “purified protein [2]” was found to be 1.15e+08 M⁻¹ s⁻¹; in “purified protein [3]”, 7.09e+07 M⁻¹ s⁻¹; in “purified protein [4]”, 6.35e+07 M⁻¹ s⁻¹; in “purified protein [5]” it was 9.7e+06 M⁻¹ s⁻¹.

B2: PP00124 (Novosphingobium sp. PP1Y) (protein)
chain: MVAVTELGYLGLTVTDLDAWRSYAAEVAGMEIVDEGEGDCLYLRMDQWHHRIALHAGDTDDLAYLGWRVAGPVEFDAMVAQLAAAGIAVEVASEAEARERRVLGLAKLADPGGNPTEIFYAPQVDTHKPFHPGRPMFGRFLTGSEGIGHCILRQDDVAAAAAFYGLLGLRGSVEYHLQLPNGMVAQPYFMHCNERQHSIAFGLGPMEKRINHLMFEYTDLDDLGLAHDIVRARKIDVALQLGKHANDQALTFYCANPSGWLWEFGWGARKAPSQQEYYTRDIFGHGNEAAGYGMDIPLG
notes: as for B1
Turning to B2, the Km was determined as 38.20 µM in the series “purified protein [2]”; 2.90 µM in “purified protein [3]”; 1.80 µM in “purified protein [4]”; 0.75 µM in “purified protein [6]”; 3.70 µM in “purified protein [5]”. Besides, the turnover number (kcat) in the series “purified protein [2]” is 5.44 s⁻¹; in “purified protein [3]”, 10.2 s⁻¹; in “purified protein [4]”, 2.97 s⁻¹; in the series “purified protein [6]”, 8.6 s⁻¹; in the series “purified protein [5]”, 13.8 s⁻¹. For the same molecule, the kcat/Km in the series “purified protein [2]” was 140000 M⁻¹ s⁻¹; in “purified protein [3]”, 3.53e+06 M⁻¹ s⁻¹; in the series “purified protein [4]”, 1.65e+06 M⁻¹ s⁻¹; in “purified protein [6]” it was 1.14e+07 M⁻¹ s⁻¹; in “purified protein [5]”, 3.72e+06 M⁻¹ s⁻¹.

B3: PP26077 (Novosphingobium sp. PP1Y) (protein)
chain: MGIKALGYVVVETAKPEEWNTFLTQFAGAMRAPDAADGAALYRVDDRVFRFRIEAGTREWFVAAGYELTDRAALDALAVRIGDAARPVEWADANEAAGRGAEAMFRTSDPAGNGLEFYCGDARSDKPFVSPIGVPEFLTGDLGMGHAVFSAPDFEETIAFHRDVVGFHETDMPRFHLMGPDAPSMGFAFLHADNGRHHSIAFGEGPVPPSGAVHIMLELPDLIEVGKAHDRMKRFGYPESATLGRHVNDETTGFYVQTPSGFDLEIGCDSLIIDPASWEVTKHEGISVWGHEWAWQKALKEQQEQEKGA
notes: as for B1
In the case of B3, in “purified protein [3]”, the Km is recorded as 2600 µM, the kcat turned out to be 3 s⁻¹ and the kcat/Km was 1200 M⁻¹ s⁻¹. In “purified protein [5]”, the Km worked out at 35.20 µM, the kcat is 8.9 s⁻¹ and the kcat/Km amounted to 250000 M⁻¹ s⁻¹.

The values are drawn from PMC9892492, “Bioconversion of 4-hydroxyestradiol by extradiol ring-cleavage dioxygenases from Novosphingobium sp. PP1Y” (Scientific Reports, 2023).
